Results: paper PMC4116151 (Biochemistry, 2014)

T1: YdiI (Escherichia coli, UniProt P77781)
T1 sequence (P77781 1-136): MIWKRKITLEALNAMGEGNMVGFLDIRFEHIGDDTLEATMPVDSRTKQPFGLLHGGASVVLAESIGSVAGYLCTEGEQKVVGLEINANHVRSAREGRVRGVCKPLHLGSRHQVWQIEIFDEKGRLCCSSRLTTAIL

T2: YbdB (Escherichia coli, UniProt P0A8Y8)
T2 sequence (P0A8Y8 1-137): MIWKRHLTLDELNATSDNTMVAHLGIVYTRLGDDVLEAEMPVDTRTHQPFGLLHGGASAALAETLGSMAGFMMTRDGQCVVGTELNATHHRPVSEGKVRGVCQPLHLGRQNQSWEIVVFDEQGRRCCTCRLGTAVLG

T3: YbdB (Escherichia coli, UniProt P0A8Y8, M68V)
T3 sequence (P0A8Y8 1-137 M68V): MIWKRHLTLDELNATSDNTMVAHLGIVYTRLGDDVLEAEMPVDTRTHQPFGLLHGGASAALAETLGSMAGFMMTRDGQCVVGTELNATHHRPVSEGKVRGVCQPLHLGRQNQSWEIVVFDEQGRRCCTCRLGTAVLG


Legend:
YdiI [1] = biological target: T1, YdiI; experiment: steady-state inhibition of thioester hydrolysis, DTNB coupled assay; type: biochemical
YbdB [2] = biological target: T2, YbdB; experiment: steady-state inhibition of 4-hydroxybenzoyl-CoA hydrolysis, direct […] nm assay; type: biochemical
YdiI [3] = biological target: T1, YdiI; experiment: as above; type: biochemical
YdiI [4] = biological target: T1, YdiI; experiment: steady-state kinetics, DTNB coupled assay at […] nm; type: biochemical; conditions: pH 7.5, 25 °C; 50 mM K+HEPES, 1 mM DTNB
YbdB [5] = biological target: T3, YbdB; experiment: steady-state kinetics, DTNB coupled assay at […] nm; type: biochemical; conditions: pH 7.5, 25 °C; 50 mM K+HEPES, 1 mM DTNB
YbdB [6] = biological target: T2, YbdB; experiment: steady-state inhibition of thioester hydrolysis, DTNB coupled assay; type: biochemical
purified protein = substrate: CC(C)(COP(=O)(O)OP(=O)(O)OC[C@H]1O[C@@H](n2cnc3c(N)ncnc32)[C@H](O)[C@@H]1OP(=O)(O)O)[C@@H](O)C(=O)NCCC(=O)NCCSC(=O)c1ccccc1; experiment: purified protein; conditions: pH 7.5, 25 °C, 50 mM K+HEPES, 1 mM DTNB

| Molecule | Km (purified protein) | other results |
| --- | --- | --- |
| CCCCCCCCCC(=O)CSCCNC(=O)CCNC(=O)[C@H](O)C(C)(C)COP(=O)(O)OP(=O)(O)OC[C@H]1O[C@@H](n2cnc3c(N)ncnc32)[C@H](O)[C@@H]1OP(=O)(O)O [compound 6, UDO-CoA] | – | Ki (YdiI [1]): 12.2 ± 0.5 µM |
| CC(C)(COP(=O)(O)OP(=O)(O)OC[C@H]1O[C@@H](n2cnc3c(N)ncnc32)[C@H](O)[C@@H]1OP(=O)(O)O)[C@@H](O)C(=O)NCCC(=O)NCCS [compound 4, CoA] | – | Ki (YbdB [2]): 210 ± 10 µM; Ki (YdiI [3]): 16 ± 1 µM |
| CC(C)(COP(=O)(O)OP(=O)(O)OC[C@H]1O[C@@H](n2cnc3c(N)ncnc32)[C@H](O)[C@@H]1OP(=O)(O)O)[C@@H](O)C(=O)NCCC(=O)NCCSC(=O)c1ccccc1 [compound 3, benzoyl-CoA] | – | Km (YdiI [4]): 25 ± 3 µM; Km (YbdB [5]): 24 ± 2 µM |
| CC(C)(COP(=O)(O)OP(=O)(O)OC[C@H]1O[C@@H](n2cnc3c(N)ncnc32)[C@H](O)[C@@H]1OP(=O)(O)O)[C@@H](O)C(=O)NCCC(=O)NCCSCC(=O)c1ccccc1 [phenacyl-CoA] | – | Ki (YbdB [6]): 65 ± 6 µM; Ki (YdiI [1]): 7.8 ± 0.4 µM |
| CC(C)(COP(=O)(O)OP(=O)(O)OC[C@H]1O[C@@H](n2cnc3c(N)ncnc32)[C@H](O)[C@@H]1OP(=O)(O)O)[C@@H](O)C(=O)NCCC(=O)NCCSCC(=O)c1ccc(O)cc1O [compound 5, 2,4-DHP-CoA] | – | Ki (YbdB [6]): 5.9 ± 6 µM; Ki (YdiI [1]): 2.5 ± 0.2 µM |
| YbdB (Escherichia coli K-12) (protein) MIWKRHLTLDELNATSDNTMVAHLGIVYTRLGDDVLEAEMPVDTRTHQPFGLLHGGASAALAETLGSMAGFMMTRDGQCVVGTELNATHHRPVSEGKVRGVCQPLHLGRQNQSWEIVVFDEQGRRCCTCRLGTAVLG | 12 ± 1 µM | – |
| YdiI (Escherichia coli K-12; S64A) (protein) MIWKRKITLEALNAMGEGNMVGFLDIRFEHIGDDTLEATMPVDSRTKQPFGLLHGGASVVLAEAIGSVAGYLCTEGEQKVVGLEINANHVRSAREGRVRGVCKPLHLGSRHQVWQIEIFDEKGRLCCSSRLTTAIL | 11.9 ± 0.9 µM | – |
| YdiI (Escherichia coli K-12; S67A) (protein) MIWKRKITLEALNAMGEGNMVGFLDIRFEHIGDDTLEATMPVDSRTKQPFGLLHGGASVVLAESIGAVAGYLCTEGEQKVVGLEINANHVRSAREGRVRGVCKPLHLGSRHQVWQIEIFDEKGRLCCSSRLTTAIL | 12.6 ± 0.2 µM | – |
| YdiI (Escherichia coli K-12; H54F) (protein) MIWKRKITLEALNAMGEGNMVGFLDIRFEHIGDDTLEATMPVDSRTKQPFGLLFGGASVVLAESIGSVAGYLCTEGEQKVVGLEINANHVRSAREGRVRGVCKPLHLGSRHQVWQIEIFDEKGRLCCSSRLTTAIL | 16.8 ± 0.9 µM | – |
| YdiI (Escherichia coli K-12; S109A) (protein) MIWKRKITLEALNAMGEGNMVGFLDIRFEHIGDDTLEATMPVDSRTKQPFGLLHGGASVVLAESIGSVAGYLCTEGEQKVVGLEINANHVRSAREGRVRGVCKPLHLGARHQVWQIEIFDEKGRLCCSSRLTTAIL | 14.2 ± 0.2 µM | – |
| YdiI (Escherichia coli K-12; H54A) (protein) MIWKRKITLEALNAMGEGNMVGFLDIRFEHIGDDTLEATMPVDSRTKQPFGLLAGGASVVLAESIGSVAGYLCTEGEQKVVGLEINANHVRSAREGRVRGVCKPLHLGSRHQVWQIEIFDEKGRLCCSSRLTTAIL | 100 ± 8 µM | – |
| YdiI (Escherichia coli K-12; R91A) (protein) MIWKRKITLEALNAMGEGNMVGFLDIRFEHIGDDTLEATMPVDSRTKQPFGLLHGGASVVLAESIGSVAGYLCTEGEQKVVGLEINANHVASAREGRVRGVCKPLHLGSRHQVWQIEIFDEKGRLCCSSRLTTAIL | 23 ± 3 µM | – |
| YdiI (Escherichia coli K-12; Q48N) (protein) MIWKRKITLEALNAMGEGNMVGFLDIRFEHIGDDTLEATMPVDSRTKNPFGLLHGGASVVLAESIGSVAGYLCTEGEQKVVGLEINANHVRSAREGRVRGVCKPLHLGSRHQVWQIEIFDEKGRLCCSSRLTTAIL | 12.6 ± 0.8 µM | – |
| YdiI (Escherichia coli K-12; E63D) (protein) MIWKRKITLEALNAMGEGNMVGFLDIRFEHIGDDTLEATMPVDSRTKQPFGLLHGGASVVLADSIGSVAGYLCTEGEQKVVGLEINANHVRSAREGRVRGVCKPLHLGSRHQVWQIEIFDEKGRLCCSSRLTTAIL | 120 ± 10 µM | – |
| YdiI (Escherichia coli K-12; H89A) (protein) MIWKRKITLEALNAMGEGNMVGFLDIRFEHIGDDTLEATMPVDSRTKQPFGLLHGGASVVLAESIGSVAGYLCTEGEQKVVGLEINANAVRSAREGRVRGVCKPLHLGSRHQVWQIEIFDEKGRLCCSSRLTTAIL | 180 ± 10 µM | – |
